Laboratory results: US10398755B2, “Clusterin pharmaceuticals and treatment methods using the same” (UNIVERSITY OF SOUTHERN CALIFORNIA, priority 2009, dated 2019)

Target: T1, MMP-7 (Mus musculus, UniProt Q10738)
T1 construct: purchased R&D Systems
T1 sequence (Q10738 95-264): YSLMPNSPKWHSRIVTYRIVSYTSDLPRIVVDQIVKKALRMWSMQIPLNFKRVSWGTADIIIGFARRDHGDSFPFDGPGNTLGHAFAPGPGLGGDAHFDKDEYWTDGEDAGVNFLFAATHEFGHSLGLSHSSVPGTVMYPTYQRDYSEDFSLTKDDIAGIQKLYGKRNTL
Assay: MMP inhibition assay (FRET peptide substrate), APMA-activated MMP-7
Format: biochemical
Details: CLU 50 μg/ml (0.63 μM), RT 0.3 h
Procedure: Recombinant MMP-9 catalytic domain (A) or APMA-activated MMP-7 (B) was incubated with PBS, CLU (50 μg/ml or 0.63 μM), SB3-CT (2 μM), or BSA (50 μg/ml), and MMP FRET substrate at RT for 0.3 h. RFU in PBS samples was considered 100%. Each reaction was performed in triplicate. Standard errors were depicted as a bar in each graph. MMPs were mixed with CLD in TSCB buffer, 50 mM Tris-HCI, pH, 7.5, 150 mM NaCl, 5 mM CaCl2, 0.002% Brij35 (or otherwise indicated concentration) 30 min prior to substrate addition, and incubated for 3 h at RT in the presence or absence of 0.02 mM p-aminophenylmercuric acetate (APMA). MMP activity was measured using a 5-FAM/QXL520 fluorescence resonance energy transfer (FRET) peptide as a substrate (EXlEm=490 nm/520 nm) (AnaSpec, Fremont, Calif.), according to the manufacturer's protocol. Relative fluorescence unit (RFU) was obtained by subtracting the values of APMA- or enzyme-omitted reactions from those of test samples, and then considering the fluorescence unit of a PBS (vehicle) sample as 100%. Enzyme reactions were performed in black 96-well plate, containing combinations of 10 ng, 5 ng, 5 ng, 10 ng, 2.5 μg, 2.5 μg of MMP-2, MMP-7, catalytic domain of MMP-9, MMP-9, CCLU, and/or BSA, respectively, in 50 μl reaction volume. As MMP substrates (0.4 μM), 520 MMP FRET substrate […] […] Fluorescence was monitored using a Victor^3TM V multilabel counter (PerkinElmer). […]

B1: CLU: secreted disulfide-linked heterodimeric glycoprotein (70-80 KD); assays used recombinant mouse CLU with C-terminal (His)6 (protein, UniProt Q06890 22-448, looked up)
Clusterin: EQEVSDNELQELSTQGSRYINKEIQNAVQGVKHIKTLIEKTNAERKSLLNSLEEAKKKKEDALEDTRDSEMKLKAFPEVCNETMMALWEECKPCLKHTCMKFYARVCRSGSGLVGQQLEEFLNQSSPFYFWMNGDRIDSLLESDRQQSQVLDAMQDSFARASGIIDTLFQDRFFARELHDPHYFSPIGFPHKRPHFLYPKSRLVRSLMSPSHYGPPSFHNMFQPFFEMIHQAQQAMDVQLHSPAFQFPDVDFLREGEDDRTVCKEIRRNSTGCLKMKGQCEKCQEILSVDCSTNNPAQANLRQELNDSLQVAERLTEQYKELLQSFQSKMLNTSSLLEQLNDQFNWVSQLANLTQGEDKYYLRVSTVTTHSSDSEVPSRVTEVVVKLFDSDPITVVLPEEVSKDNPKFMDTVAEKALQEYRRKSRAE
modifications: C-terminal His6 tag
  inhibition of APMA-activated MMP-7: 17%
